This is an account of results in patent publication US20150203840A1 (ARGEN X N V, published 2015).

For assay [1], the target named is T1, recombinant human IL22R1 (human IL22R ECD) (human) (UniProt Q8N6P7).
T1 sequence (biotinylated in the ELISA of Table 4, looked up): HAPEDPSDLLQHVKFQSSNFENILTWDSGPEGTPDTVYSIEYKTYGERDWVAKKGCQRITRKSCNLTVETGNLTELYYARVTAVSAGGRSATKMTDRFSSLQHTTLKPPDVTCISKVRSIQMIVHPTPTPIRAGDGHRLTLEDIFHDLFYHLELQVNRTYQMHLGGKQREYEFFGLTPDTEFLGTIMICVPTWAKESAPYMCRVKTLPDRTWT
Nature of the assay: Biacore, immobilized human IL22R ECD.

In assay [2] the target is T2, recombinant mouse IL22R1 (mouse IL22R ECD) (mouse) (UniProt Q80XZ4).
T2 sequence (biotinylated in the ELISA of Table 4, looked up): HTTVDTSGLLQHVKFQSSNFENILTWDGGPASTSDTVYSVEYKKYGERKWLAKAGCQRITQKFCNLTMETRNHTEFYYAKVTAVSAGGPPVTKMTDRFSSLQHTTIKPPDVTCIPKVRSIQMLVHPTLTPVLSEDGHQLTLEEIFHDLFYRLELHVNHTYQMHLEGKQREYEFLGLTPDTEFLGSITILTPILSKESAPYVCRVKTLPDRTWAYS
Nature of the assay: Biacore, immobilized mouse IL22R ECD. (In SPR one partner is held on a chip, and binding of the other changes the refractive index at the surface.)

For assay [3], the target named is cyno IL22R ECD (cyno). Nature of the assay: ELISA, mAb coated at 100 ng/ml, biotinylated cyno IL22R ECD at 2 ng/ml, streptavidin-HRP. For orientation: An ELISA detects its analyte on a solid surface through an enzyme-linked reagent.
The target in assay [4] is T1, recombinant human IL22R1 (human IL22R ECD) (human). Description: ELISA, mAb coated at 100 ng/ml, biotinylated human IL22R ECD at 2 ng/ml, streptavidin-HRP.
Assay [5] addresses T2, recombinant mouse IL22R1 (mouse IL22R ECD) (mouse). Description: ELISA, mAb coated at 100 ng/ml, biotinylated mouse IL22R ECD at 2 ng/ml, streptavidin-HRP.
For assay [6], the target named is cyno IL22R ECD (cyno). Nature of the assay: ELISA, mAb coated at 100 ng/ml, biotinylated cyno IL22R ECD at 100 ng/ml, streptavidin-HRP.
Assay [7] concerns the target T3, rhesus IL22R ECD (rhesus) (UniProt G7MHN4).
T3 sequence (chain, biotinylated): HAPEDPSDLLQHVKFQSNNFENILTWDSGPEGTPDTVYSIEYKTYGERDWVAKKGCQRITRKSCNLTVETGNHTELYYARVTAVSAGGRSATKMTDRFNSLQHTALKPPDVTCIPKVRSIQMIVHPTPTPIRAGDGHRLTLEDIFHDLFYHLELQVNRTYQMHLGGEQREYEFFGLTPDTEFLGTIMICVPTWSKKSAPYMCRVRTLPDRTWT
Nature of the assay: ELISA, mAb coated at 100 ng/ml, biotinylated rhesus IL22R ECD at 2 ng/ml, streptavidin-HRP.

Assay [8] addresses T1, recombinant human IL22R1 (human IL22R ECD) (human). Description: ELISA, mAb coated at 100 ng/ml, biotinylated human IL22R ECD at 100 ng/ml, streptavidin-HRP.
For assay [9], the target named is T2, recombinant mouse IL22R1 (mouse IL22R ECD) (mouse). Nature of the assay: ELISA, mAb coated at 100 ng/ml, biotinylated mouse IL22R ECD at 100 ng/ml, streptavidin-HRP.
The target of assay [10] is T3, rhesus IL22R ECD (rhesus). Description: ELISA, mAb coated at 100 ng/ml, biotinylated rhesus IL22R ECD at 100 ng/ml, streptavidin-HRP.

B1: 205A5 (antibody, part only; not given: parental light chain variable domain, V domains shown, part only)
VH: QVQLVESGGGLVQPGGSLRLSCAASGFTFNSYEMYWVRQAPGKGLEWVSGITADGGYTYYADSVKGRFTMSRDNAKNTLYLQMNSLKPEDTALYYCANLWNDYWGQGTQVIVSS
What is called Kd is the equilibrium constant for the complex coming apart. In general, koff refers to a measure of how fast the partners let go of each other. The term kon denotes the second-order rate constant of association. B1: the Kd turned out to be 1.9 pM in assay [1] and 7 pM in assay [2]. The figures for the koff in assay [1] and in [2] were 3.1e-07 s⁻¹ and 1e-06 s⁻¹, respectively. The kon is 160000 M⁻¹ s⁻¹ in assay [1] and 150000 M⁻¹ s⁻¹ in assay [2]. Further, the Absorption at 620 nm (relative absorption units) in [3] worked out at 1.36; in assay [4] it was 1; in assay [5] it was 0.172; in [6] it was 2.66; in assay [7] it was 1.17; in [8], 2.93. The Absorption at 620 nm (relative absorption units) was determined as 2.36 in assay [9] and 2.77 in assay [10].
